Source: patent US20230295273A1 (published 2023)

Experiments:
[1] = biological target: PDGFRα-Fc Site 3 mutant (E208N, S210S as printed) (human) (UniProt P16234); assay: BLI (Octet Red); PDGFRα-Fc captured on anti-human Fc sensors, trimer as soluble analyte
[2] = biological target: T1, PDGFRα-Fc Site 4 mutant (E263N, K265S) (human, UniProt P16234 24-528); assay: as above
T1 construct: range 1-528; Mutations meant to introduce an N-linked glycosylation site; not shown: C-terminal human IgG1 (Fc) tag
T1 sequence (P16234 24-528 E263N/K265S limits assumed, form in doubt): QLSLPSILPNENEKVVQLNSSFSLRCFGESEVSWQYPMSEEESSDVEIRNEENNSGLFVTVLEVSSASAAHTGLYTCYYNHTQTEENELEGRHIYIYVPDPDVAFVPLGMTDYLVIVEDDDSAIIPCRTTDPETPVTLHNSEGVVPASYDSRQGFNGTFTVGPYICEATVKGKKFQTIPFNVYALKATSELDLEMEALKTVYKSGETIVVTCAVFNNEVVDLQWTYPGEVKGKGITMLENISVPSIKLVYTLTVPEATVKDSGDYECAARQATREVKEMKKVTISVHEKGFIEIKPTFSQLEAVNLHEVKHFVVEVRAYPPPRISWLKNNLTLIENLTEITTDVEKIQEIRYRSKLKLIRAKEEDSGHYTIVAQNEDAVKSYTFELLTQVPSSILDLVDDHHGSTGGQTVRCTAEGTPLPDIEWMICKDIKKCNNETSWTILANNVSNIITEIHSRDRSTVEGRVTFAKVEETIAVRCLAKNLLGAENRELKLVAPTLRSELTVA

[3] = biological target: T2, PDGFRα-Fc wild type (human PDGFRα (1-528) with C-terminal human IgG1 Fc tag) (human, UniProt P16234 24-528); assay: as above
T2 construct: range 1-528; also called WT; PDGFRα WT; not shown: C-terminal human IgG1 (Fc) tag
T2 sequence (P16234 24-528 limits assumed, form in doubt): as the sequence (P16234 24-528 E263N/K265S limits assumed, form in doubt) above, with N240E, S242K counted along it

[4] = biological target: T3, PDGFRα-Fc Site 2 mutant (E108N, N110S) (human, UniProt P16234 24-528); assay: as above
T3 construct: range 1-528; Mutations meant to introduce an N-linked glycosylation site; not shown: C-terminal human IgG1 (Fc) tag
T3 sequence (P16234 24-528 E108N/N110S limits assumed, form in doubt): as the sequence (P16234 24-528 E263N/K265S limits assumed, form in doubt) above, with E85N, N87S, N240E, S242K counted along it

[5] = biological target: T4, PDGFRα-Fc Site 1 mutant (E52N, E54S) (human, UniProt P16234 24-528); assay: as above
T4 construct: range 1-528; Mutations meant to introduce an N-linked glycosylation site; not shown: C-terminal human IgG1 (Fc) tag
T4 sequence (P16234 24-528 E52N/E54S limits assumed, form in doubt): as the sequence (P16234 24-528 E263N/K265S limits assumed, form in doubt) above, with E29N, E31S, N240E, S242K counted along it

[6] = biological target: T2, PDGFRα-Fc wild type (human PDGFRα …); assay: BLI with PDGFRα-Fc (FIG. 7D)

PDGFRα-Fc Site 3 mutant (E208N, S210S as printed) (human), sequence (P16234 24-528, stated change not applied): as the sequence (P16234 24-528 E263N/K265S limits assumed, form in doubt) above, with N240E, S242K counted along it

Molecule: HCMV gHgLgO trimer (soluble region, wild-type gO) (from UniProt P12824 24-716; Q68672 31-278)
- Kd [1]: 21.5 nM

B1: HCMV gHgLgO trimer (soluble region, wild-type gO) (other)
chain 1: […]
chain 2: VAVSVAPTAAEKVPAECPELTRRCLLGEVFQGDKYESWLRPLVNVTGRNGPLSQLIRYRPVTPEAANSVLLDDAFLDTLALLYNNPDQLRALLTLLSSDTAPRWMTVMRGYSECGDGSPAVYTCVDDLCRGYDLTRLSYGRSIFTEHVLGFELVPPSLFNVVVAIRNEATRTNRAVRLPVSTAAAPEGITLFYGLYNAVKEFCLRHQLDPPLLRHLDKYYAGLPPELKQTRVNLPAHSRYGPQAVDAR
chain 3: […]
notes: Expressed in Expi293 cells; gH, gL and gO are disulfide-linked; also called HCMV trimer; gHgLgO complex; not shown: C-terminal Myc-Avi-His tag; C-terminal Twin-Strep-tag
- Kd [2]: 4.65 nM
- Kd [3]: 2.25 nM
- Kd [4]: 2.7 nM
- Kd [5]: 16.5 nM

B2: HCMV gHgLgO trimer with charge mutations at gO (M84R, F111R, R117E, F136R, R212E, R230E, R234E, R336E, F342E, A351R, N358R) (other)
chain 1: […]
chain 2: B1 chain 2
chain 3: […]
notes: also called Trimermut; TrimerMUT; not shown: C-terminal Myc-Avi-His tag; C-terminal Twin-Strep-tag
- Kd [6]: 42500 nM
- fold reduction of binding against Trimer-WT [6]: ~10000 times
